Paper PMC12383448

Key:
His12 = His12 (UniProt position 197, CHQQIHRNAPI); assay: NMR
His8 = His8 (UniProt position 193, ACLSCHQQIHR); assay: NMR
[1] = 10 °C, not stated for the titration sample (the pH 6.0 zinc-binding NMR samples had no other added buffers or salts), not stated (no added buffer reported for the NMR samples), folded, Zn2+-bound (0.9 mM ZL with equimolar ZnCl2)

For “ZC4H2 zinc finger peptide ZL (ZC4H2-ZL) (Homo sapiens)”, which pKa (His12; [1]) is on record?
Its pKa is 5.5 ± 0.1.

And the pKa (His12; unfolded, zinc-free ZL peptide)?
Its pKa is “near 6.0”.

And the pKa (His8; [1])?
Its pKa is 6.9 ± 0.1.

What about the pKa (His8; unfolded, zinc-free ZL peptide) of the same substance?
The pKa was “near 6.0”.
